In assay [1] the target is T1, mouse NGF (mouse, UniProt P01139 122-241).
T1 construct: also called murine NGF
The experiment in a line: ELISA, CHO supernatant on murine NGF.

Assay [2] has as its target NGF (TF-1 cell proliferation assay). Kind of assay: cell-based or functional assay.
The target in assay [3] is T2, complement C1q (human, UniProt P02745 23-245; P02746 28-253; P02747 29-245).
T2 construct: Supplied as human serum diluted 1/100; detected with sheep anti-C1q-HRP
Kind of assay: C1q ELISA, antibody captured on mouse NGF coated plates.

The target of assay [4] is T2, complement C1q. Kind of assay: C1q ELISA, antibody captured on mouse NGF, human serum 1/100.
Assay [5] addresses T1, mouse NGF. Kind of assay: binding ELISA to mouse NGF, CHO supernatants.
In assay [6] the target is T2, complement C1q. Kind of assay: C1q ELISA, antibody captured on NGF.
The target in assay [7] is T2, complement C1q. Kind of assay: C1q ELISA, antibody captured on NGF coated plates.

Changes are numbered by the printed parent chain.

T1 sequence (P01139 122-241 limits assumed): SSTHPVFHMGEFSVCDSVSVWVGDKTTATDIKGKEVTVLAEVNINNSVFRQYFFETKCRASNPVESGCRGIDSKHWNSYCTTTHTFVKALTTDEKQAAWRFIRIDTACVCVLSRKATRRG
T2 sequence (P02745 23-245 limits assumed, chain 1 of 3): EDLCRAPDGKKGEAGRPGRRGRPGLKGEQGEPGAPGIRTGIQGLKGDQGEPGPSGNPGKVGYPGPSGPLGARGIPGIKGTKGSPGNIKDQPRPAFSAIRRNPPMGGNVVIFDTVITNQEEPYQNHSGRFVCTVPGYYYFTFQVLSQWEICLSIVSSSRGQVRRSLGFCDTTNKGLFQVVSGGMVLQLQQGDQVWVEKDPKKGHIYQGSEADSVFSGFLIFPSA
T2 sequence (P02746 28-253 limits assumed, chain 2 of 3): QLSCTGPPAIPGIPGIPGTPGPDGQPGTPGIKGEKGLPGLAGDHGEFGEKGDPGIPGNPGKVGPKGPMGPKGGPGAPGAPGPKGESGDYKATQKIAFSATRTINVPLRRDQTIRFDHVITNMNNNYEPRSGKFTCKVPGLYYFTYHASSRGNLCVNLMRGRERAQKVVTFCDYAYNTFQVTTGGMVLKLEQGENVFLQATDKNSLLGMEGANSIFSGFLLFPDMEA
T2 sequence (P02747 29-245 limits assumed, chain 3 of 3): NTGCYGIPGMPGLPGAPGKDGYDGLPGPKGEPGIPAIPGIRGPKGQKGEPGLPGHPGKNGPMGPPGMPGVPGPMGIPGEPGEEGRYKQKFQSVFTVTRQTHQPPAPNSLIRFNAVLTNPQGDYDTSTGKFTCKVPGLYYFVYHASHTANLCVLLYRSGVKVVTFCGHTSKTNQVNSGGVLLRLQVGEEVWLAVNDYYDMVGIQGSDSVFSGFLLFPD
NGF (TF-1 cell proliferation assay), sequence (P01138 122-241): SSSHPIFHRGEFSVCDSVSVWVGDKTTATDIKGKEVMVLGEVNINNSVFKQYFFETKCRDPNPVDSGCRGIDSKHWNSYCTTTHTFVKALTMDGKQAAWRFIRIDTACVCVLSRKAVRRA

B1: caN-HCA-kLC (antibody)
heavy: EVQLVESGGDLVNPGGTLTLSCVVSGFSLTNNNVNWVRQALGRGLEWVGGVWAGGATDYNSALKSRLTITRDTSKSTVFLKMHSLQSEDTATYYCARDGGYSSSTLYAMDAWGQGTLVTVSSASTTAPSVFPLAPSCGSTSGSTVALACLVSGYFPEPVTVSWNSGSLTSGVHTFPSVLQSSGLHSLSSMVTVPSSRWPSETFTCNVVHPASNTKVDKPVFNECRCTDTPPCPVPEPLGGPSVLIFPPKPKDILRITRTPEVTCVVLDLGREDPEVQISWFVDGKEVHTAKTQSREQQFNGTYRVVSVLPIEHQDWLTGKEFKCRVNHIDLPSPIERTISKARGRAHKPSVYVLPPSPKELSSSDTVSITCLIKDFYPPDIDVEWQSNGQQEPERKHRMTPPQLDEDGSYFLYSKLSVDKSRWQQGDPFTCAVMHETLQNHYTDLSLSHSPGK
light: DIQMTQSPASLSLSQEEKVTITCRASEDIYNALAWYQQKPGQAPKLLIYNTDTLHTGVPSRFSGSGSGTEYSLTINSLESEDVAVYFCQHYFHYPRTFGAGTKVELKRNDAQPAVYLFQPSPDQLHTGSASVVCLLNSFYPKDINVKWKVDGVIQDTGIQESVTEQDKDSTYSLSSTLTMSSTEYLSHELYSCEITHKSLPSTLIKSFQRSECQRVD
notes: Caninised aD11 VH joined to canine HCA (caIgG-A) constant domain; caninised aD11 VL joined to canine kappa constant domain; also called caninised anti-NGF antibody, HCA isotype; anti-canine NGF antibody (HCA isotype)
With B1, the binding result in assay [1] is “binds”; in assay [3], “no binding (tested: human serum diluted 1/100)”. Further, the “IC50, TF-1 NGF neutralisation assay” value in assay [2] was 0.013 nM.

B2: caN-HCB-kLC (antibody)
heavy: EVQLVESGGDLVNPGGTLTLSCVVSGFSLTNNNVNWVRQALGRGLEWVGGVWAGGATDYNSALKSRLTITRDTSKSTVFLKMHSLQSEDTATYYCARDGGYSSSTLYAMDAWGQGTLVTVSSASTTAPSVFPLAPSCGSTSGSTVALACLVSGYFPEPVTVSWNSGSLTSGVHTFPSVLQSSGLYSLSSMVTVPSSRWPSETFTCNVAHPASKTKVDKPVPKRENGRVPRPPDCPKCPAPEMLGGPSVFIFPPKPKDTLLIARTPEVTCVVVDLDPEDPEVQISWFVDGKQMQTAKTQPREEQFNGTYRVVSVLPIGHQDWLKGKQFTCKVNNKALPSPIERTISKARGQAHQPSVYVLPPSREELSKNTVSLTCLIKDFYPPDIDVEWQSNGQQEPESKYRTTPPQLDEDGSYFLYSKLSVDKSRWQRGDTFICAVMHEALHNHYTQESLSHSPGK
light: B1 light
notes: Caninised aD11 VH joined to canine HCB (caIgG-B) constant domain; canine kappa light chain; CHO supernatant; also called caninised anti-NGF antibody, HCB isotype
Turning to B2, the binding result in assay [4] and in assay [5] was “binds” throughout.

B3: caN-HCD-kLC (antibody)
heavy: EVQLVESGGDLVNPGGTLTLSCVVSGFSLTNNNVNWVRQALGRGLEWVGGVWAGGATDYNSALKSRLTITRDTSKSTVFLKMHSLQSEDTATYYCARDGGYSSSTLYAMDAWGQGTLVTVSSASTTAPSVFPLAPSCGSTSGSTVALACLVSGYFPEPVTVSWNSGSLTSGVHTFPSVLQSSGLYSLSSTVTVPSSRWPSETFTCNVVHPASNTKVDKPVPKESTCKCISPCPVPESLGGPSVFIFPPKPKDILRITRTPEITCVVLDLGREDPEVQISWFVDGKEVHTAKTQPREQQFNSTYRVVSVLPIEHQDWLTGKEFKCRVNHIGLPSPIERTISKARGQAHQPSVYVLPPSPKELSSSDTVTLTCLIKDFYPPEIDVEWQSNGQPEPESKYHTTAPQLDEDGSYFLYSKLSVDKSRWQQGDTFTCAVMHEALQNHYTDLSLSHSPGK
light: B1 light
notes: Caninised aD11 VH joined to canine HCD (caIgG-D) constant domain; canine kappa light chain; CHO supernatant; also called caninised anti-NGF antibody, HCD isotype
Take B3: the binding result in assay [1] is listed as “binds”; in assay [3], “no binding (tested: human serum diluted 1/100)”.

B4: caN-HCC-kLC (antibody)
heavy: EVQLVESGGDLVNPGGTLTLSCVVSGFSLTNNNVNWVRQALGRGLEWVGGVWAGGATDYNSALKSRLTITRDTSKSTVFLKMHSLQSEDTATYYCARDGGYSSSTLYAMDAWGQGTLVTVSSASTTAPSVFPLAPSCGSQSGSTVALACLVSGYIPEPVTVSWNSVSLTSGVHTFPSVLQSSGLYSLSSMVTVPSSRWPSETFTCNVAHPATNTKVDKPVAKECECKCNCNNCPCPGCGLLGGPSVFIFPPKPKDILVTARTPTVTCVVVDLDPENPEVQISWFVDSKQVQTANTQPREEQSNGTYRVVSVLPIGHQDWLSGKQFKCKVNNKALPSPIEEIISKTPGQAHQPNVYVLPPSRDEMSKNTVTLTCLVKDFFPPEIDVEWQSNGQQEPESKYRMTPPQLDEDGSYFLYSKLSVDKSRWQRGDTFICAVMHEALHNHYTQISLSHSPGK
light: B1 light
notes: Caninised aD11 VH joined to canine HCC (caIgG-C) constant domain; canine kappa light chain; CHO supernatant; also called caninised anti-NGF antibody, HCC isotype
On to B4, for which the binding result in assay [4] and in assay [5] was “binds” each time.

B5: anti-NGF MAb with aglycosyl HCC heavy chain (HCC*) (antibody)
heavy: B4 heavy with N303A
light: B1 light
Consider B5, for which the binding result in assay [6] and in assay [5] was “binds” in each case.

B6: anti-NGF MAb with aglycosyl HCB heavy chain (HCB*) (antibody)
heavy: B2 heavy with N305A
light: B1 light
notes: also called aglycosylated HCB*; aglycosyl HCB* isotype anti-NGF antibody
In the case of B6, the results for the binding result in assay [7] and in assay [5] were “no binding (tested: human serum diluted 1/100)” and “binds”, respectively.

The record behind these values is US20140170137A1 (NVIP, published 2014).
